Data as given in US20040009177A1 (SERVICES, published 2004).

How the values were obtained:
[1] = target: purified recombinant soluble polyhistidine-tagged G glycoprotein (respiratory syncytial virus) (UniProt P03423); assay: flow cytometry, GHIS on CX3CR1-293 cells with control antibody (68% without)
[2] = target: CX3CR1 on Vero cells (African green monkey); assay: cell-based or functional assay
[3] = target: CX3CR1 on naive mouse spleen leukocytes (mouse) (UniProt Q9Z0D9); assay: cell-based or functional assay
Chain of CX3CR1 on naive mouse spleen leukocytes (mouse) (Q9Z0D9 whole entry): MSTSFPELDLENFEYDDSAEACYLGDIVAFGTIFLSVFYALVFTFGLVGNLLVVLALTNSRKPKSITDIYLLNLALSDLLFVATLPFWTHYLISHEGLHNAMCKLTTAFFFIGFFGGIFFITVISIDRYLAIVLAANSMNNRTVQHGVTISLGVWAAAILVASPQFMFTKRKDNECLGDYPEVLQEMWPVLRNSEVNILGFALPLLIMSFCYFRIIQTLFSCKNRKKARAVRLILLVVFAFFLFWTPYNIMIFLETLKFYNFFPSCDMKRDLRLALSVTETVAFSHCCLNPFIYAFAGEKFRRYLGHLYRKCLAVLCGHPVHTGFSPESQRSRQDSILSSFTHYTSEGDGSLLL

[4] = target: T1, CX3CR1 on CX3CR1-transfected human embryonic kidney cells (293-CX3CR1 cells) (UniProt P49238 1-355); assay: inhibition of G glycoprotein binding to CX3CR1, methods described in the examples (no further detail)
T1 construct: whole, on cells; also called CX3C receptor; CX3CR1-293 cells
T1 sequence (looked up): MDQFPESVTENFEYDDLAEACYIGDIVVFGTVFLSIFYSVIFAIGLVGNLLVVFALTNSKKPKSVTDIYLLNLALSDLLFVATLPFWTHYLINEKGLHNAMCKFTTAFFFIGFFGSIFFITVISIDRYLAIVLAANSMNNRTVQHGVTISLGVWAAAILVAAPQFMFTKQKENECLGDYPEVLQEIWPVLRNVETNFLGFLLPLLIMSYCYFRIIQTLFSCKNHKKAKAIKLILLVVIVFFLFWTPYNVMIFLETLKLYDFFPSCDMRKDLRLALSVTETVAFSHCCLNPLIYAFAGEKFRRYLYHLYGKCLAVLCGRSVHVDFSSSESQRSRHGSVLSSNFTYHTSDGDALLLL

[5] = target: RSV G glycoprotein, purified from RSV/A2-infected Vero cells (respiratory syncytial virus, A2 strain) (UniProt P03423); assay: cell-based or functional assay
[6] = target: T2, mouse Fkn (mouse) (UniProt O35188); assay: cell-based or functional assay
T2 sequence (looked up): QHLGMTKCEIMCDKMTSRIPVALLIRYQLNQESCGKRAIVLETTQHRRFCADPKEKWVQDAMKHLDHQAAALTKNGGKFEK

[7] = target: purified recombinant soluble polyhistidine-tagged G glycoprotein (respiratory syncytial virus) (UniProt P03423); assay: flow cytometry, GHIS on CX3CR1-293 cells with antibody (68% without)
[8] = target: purified recombinant soluble polyhistidine-tagged G glycoprotein (respiratory syncytial virus) (UniProt P03423); assay: flow cytometry; inhibition of polyhistidine-tagged G glycoprotein binding to 293-CX3CR1 cells
[9] = target: RSV G glycoprotein, purified from RSV/A2-infected Vero cells (respiratory syncytial virus, A2 strain) (UniProt P03423); assay: flow cytometry; inhibition of G glycoprotein binding to 293-CX3CR1 cells, in the absence of heparin
[10] = target: T1, CX3CR1 on CX3CR1-transfected human …; assay: Scatchard analysis; displacement of 1 nM 125I-fractalkine from 293-CX3CR1 cells by unlabeled Fkn, 2 h 37°C with azide; mean±SD of three experiments
[11] = target: T1, CX3CR1 on CX3CR1-transfected human …; assay: flow cytometry, G glycoprotein on CX3CR1-293 cells with competitor peptide (84% without)
[12] = target: T1, CX3CR1 on CX3CR1-transfected human …; assay: Scatchard analysis; displacement of 1 nM 125I-fractalkine from 293-CX3CR1 cells by unlabeled G glycoprotein, 2 h 37°C with azide; mean±SD of three experiments

Question: How did the percent positive staining of GHIS in the presence of the antibody [1] turn out when “anti-F glycoprotein monoclonal antibody 131-2A” was run?
Answer: The percent positive staining of GHIS in the presence of the antibody was 60%.

Question: With normal rabbit sera as the molecule, how does the RSV plaque inhibition (%) on Vero cells; Normal rabbit sera (control) [2] read?
Answer: The RSV plaque inhibition (%) on Vero cells; Normal rabbit sera (control) was 6%.

Question: What does the source list for “mouse Fkn (from UniProt O35188 25-105) (ligand)”?
Answer: chemotactic index of mouse leukocytes toward G glycoprotein with Fkn as antagonist (chemotactic index) [3]: 1.2; inhibition of mouse leukocyte chemotaxis toward G glycoprotein by Fkn [3]: 75%

B1: G glycoprotein peptide EYp1, TCAAACKRIPNKK (SEQ ID NO: 5) (peptide)
peptide: TCAAACKRIPNKK
notes: 13-mer variant of RT33 with the motif CAAAC
Question: B1 was tested. Which percent inhibition [4] did it give?
Answer: The percent inhibition was greater than 90%.

Question: How did the percent inhibition [4] turn out when TCMAACKRIPNKK [peptide TCMAACKRIPNKK (SEQ ID NO: 10)] was run?
Answer: Its percent inhibition is greater than 90%.

Question: For TCDAACKRIPNKK [peptide TCDAACKRIPNKK (SEQ ID NO: 8)], which percent inhibition [4] is on record?
Answer: Its percent inhibition is greater than 90%.

Question: Which percent inhibition [4] does the source give for TCFAACKRIPNKK [peptide TCFAACKRIPNKK (SEQ ID NO: 11)] here?
Answer: Its percent inhibition is greater than 90%.

Question: For TCWAACKRIPNKK [peptide TCWAACKRIPNKK (SEQ ID NO: 6)], which percent inhibition [4] is on record?
Answer: Its percent inhibition is greater than 90%.

Question: How did the percent inhibition [4] turn out when TCNAACKRIPNKK [peptide TCNAACKRIPNKK (SEQ ID NO: 7)] was run?
Answer: Its percent inhibition is greater than 90%.

B2: anti-G glycoprotein monoclonal antibody 131-2G (antibody, from another filing, V domains shown)
VH: EVQLQQSGPELVKPGTSVKISCKASGYSFTGFTMNWVKQSHGKNLEWFGLINPFNGNTGYNQKFKGKATLTVDKSSSTAFMELLSLTSEDSAVYYCARSGKSYDYEAWFTYWGQGTLVTVSA
VL: DIVMTQTTLSLPVSLGNQASISCRSSQTIVHTNGNTYLEWYLQKPGQSPKLLIYKVSNRFSGVPDRFSGSGSGTDFILNISRVEAEDLGVYYCFQGSHVPFTFGSGTKLEIKR
Question: Which chemotactic index of mouse leukocytes toward G glycoprotein with anti-G glycoprotein (131-2G) (chemotactic index) [5] does the source give for B2 here?
Answer: The chemotactic index of mouse leukocytes toward G glycoprotein with anti-G glycoprotein (131-2G) (chemotactic index) was 1.1.

Question: And the chemotactic index of mouse leukocytes toward Fkn with anti-G glycoprotein (131-2G) (chemotactic index) [6]?
Answer: The chemotactic index of mouse leukocytes toward Fkn with anti-G glycoprotein (131-2G) (chemotactic index) was 4.8.

Question: What about the percent positive staining of GHIS in the presence of the antibody [7] of the same molecule?
Answer: Its percent positive staining of GHIS in the presence of the antibody is 10%.

Question: And the percent inhibition [8]?
Answer: Its percent inhibition is 80 to 88%.

Question: What about the percent inhibition [9] of the same molecule?
Answer: Its percent inhibition is 32 to 48%.

B3: human fractalkine (R&D Diagnostics) (ligand, UniProt P78423 25-100, looked up)
chain: QHHGVTKCNITCSKMTSKIPVALLIHYQQNQASCGKRAIILETRQHRLFCADPKEQWVKDAMQHLDRQAAALTRNG
notes: also called Fkn; human Fkn
Question: For B3, which Kd [10] is on record?
Answer: The Kd was 5.8 nM.

Question: With TCWACKRIPNK [G glycoprotein peptide ?-1, 11-mer variant of RT33 with a deletion of ILE in the CX3C motif] as the molecule, how does the “percent positive staining of G glycoprotein in the presence of the peptide” value (from here on “percent positive staining … of the peptide”) [11] read?
Answer: Its value is 73%.

B4: G glycoprotein peptide RT33 (peptide)
peptide: TCWAICKRIPNK
notes: synthetic 12-mer with the CX3C motif CWAIC
Question: B4 was tested. Which “percent positive staining … of the peptide” value [11] did it give?
Answer: The value was 48%.

Question: VPCSICSNNPTC (synthetic 12-mer, lacks the CX3C motif) [G glycoprotein peptide RT32] was tested. Which “percent positive staining … of the peptide” value [11] did it give?
Answer: The value was 72%.

B5: G glycoprotein peptide RT34 (peptide)
peptide: NKKPGKKTTTKP
notes: synthetic 12-mer C-terminal to the CX3C motif
Question: How did the “percent positive staining … of the peptide” value [11] turn out when B5 was run?
Answer: The value was 74%.

B6: RSV G glycoprotein, purified from RSV/A2-infected Vero cells (ligand, respiratory syncytial virus, A2 strain, UniProt P03423 1-298, looked up)
chain: MSKNKDQRTAKTLERTWDTLNHLLFISSCLYKLNLKSVAQITLSILAMIISTSLIIAAIIFIASANHKVTPTTAIIQDATSQIKNTTPTYLTQNPQLGISPSNPSEITSQITTILASTTPGVKSTLQSTTVKTKNTTTTQTQPSKPTTKQRQNKPPSKPNNDFHFEVFNFVPCSICSNNPTCWAICKRIPNKKPGKKTTTKPTKKPTLKTTKKDPKPQTTKSKEVPTTKPTEEPTINTTKTNIITTLLTSNTTGNPELTSQMETFHSTSSEGNPSPSQVSTTSEYPSQPSSPPNTPRQ
notes: Lectin and Q-Sepharose purified; concentration estimated with a molecular weight of 90 kD; also called attachment protein
Question: B6 was tested. Which Kd [12] did it give?
Answer: The Kd was 2.1 nM.
